Patent US20260193365A1 (GRANITE BIO, published 2026)
Where a chain is given by its changes, count along the chain named.

T1: human CCR2 (human, UniProt O18793 1-360 (rhesus entry))
T1 construct: On primary human monocytes/PBMC and on human-CCR2 transfected CHO cells; also called C-C Motif Chemokine Receptor 2; CD192
T1 chain: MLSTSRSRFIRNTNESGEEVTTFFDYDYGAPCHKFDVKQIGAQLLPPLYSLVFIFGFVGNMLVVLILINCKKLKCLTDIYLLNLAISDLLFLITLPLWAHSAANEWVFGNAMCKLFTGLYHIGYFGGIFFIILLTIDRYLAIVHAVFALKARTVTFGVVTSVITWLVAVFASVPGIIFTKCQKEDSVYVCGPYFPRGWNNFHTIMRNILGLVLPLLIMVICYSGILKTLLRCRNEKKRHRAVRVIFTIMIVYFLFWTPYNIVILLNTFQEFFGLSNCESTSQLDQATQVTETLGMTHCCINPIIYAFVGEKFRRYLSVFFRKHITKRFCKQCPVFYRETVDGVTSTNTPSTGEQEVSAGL

T2: Marmoset monkey (Callithrix jacchus) CCR2 (Marmoset monkey (Callithrix jacchus), UniProt O18793 1-360)
T2 construct: On primary marmoset monocytes (marmoset blood/PBMC); they may hold print errors; also called marmoset CCR2; marmoset CCR2b
T2 chain: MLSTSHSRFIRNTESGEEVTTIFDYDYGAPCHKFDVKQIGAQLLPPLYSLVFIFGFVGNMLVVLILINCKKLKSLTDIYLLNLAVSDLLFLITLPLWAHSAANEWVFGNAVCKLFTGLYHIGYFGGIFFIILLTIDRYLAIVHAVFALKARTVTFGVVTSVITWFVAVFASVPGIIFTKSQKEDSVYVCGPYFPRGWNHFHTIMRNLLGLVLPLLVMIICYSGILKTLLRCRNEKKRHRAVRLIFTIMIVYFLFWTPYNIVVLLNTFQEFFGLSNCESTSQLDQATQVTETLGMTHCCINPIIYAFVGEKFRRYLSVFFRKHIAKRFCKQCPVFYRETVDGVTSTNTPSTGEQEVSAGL

B1: DOC3 chim. (antibody, human IgG1, kappa, V domains shown)
VH: QVQLKESGPGLVAPSQSLSITCTVSGFSLTRYDLSWIRQPPGKGLQWLGVIWTGGGTNYNSAFMSRLSIRKDNSKSQVFLKMNSLQTDDTAIYYCVRENYYNRRGYFDVWGAGTTVTVSS
VL: QIVLTQSPAIMSTSPGEKVTITCSASSSVSYMHWFQQKPGTSPKLWIYLTSNLASGVPARFSGSGSGTSYSLTINRMEAEDAATYYCQQRSGSPPTFGTGTKLELRR
B2: DOC3-RHLXRKA (antibody, human IgG1, kappa, V domains shown)
VH: QVQLQESDPGLVKPSETLSLTCTVSGFSISRYDLSWIRQPPGKGLEWIGVIWTGGGTNYNSAFMSRLTISKDTSKNQVSLKLSSVTAADTAVYYCARENYYNRRGYFDVWGQGTMVTVSS
VL: EIVLTQSPATLSLSPGERATLSCSASSSVSYMHWFQQKPGQAPRLLIYLTSNLASGIPARFSGSGSGTDFTLTISSLEPEDFAVYYCQQRSGSPPTFGPGTKLDIKR
B3: DOC3-RH09XRKA (antibody, human IgG1, kappa, V domains shown)
VH: EVQLVESGGGLVQPGGSLRLSCAVSGFSLTRYDLSWVRQAPGKGLEWLGVIWTGGGTNYNSAFMSRFSISKDNSKNTVFLQMNSLRAEDTAVYYCARENYYNRRGYFDVWGQGTTVTVSS
VL: B2 VL
B4: DOC3-RH09XRKC (antibody, human IgG1, kappa, V domains shown)
VH: B3 VH
VL: B2 VL with E1Q, I57V
B5: DOC3-RH03XRKA (antibody, human IgG1, kappa, V domains shown)
VH: B3 VH with F67L, S68T, K71R, V78L, F79Y, A96V
VL: B2 VL
B6: DOC2-RHBXRKB (antibody, human IgG1, kappa, V domains shown)
VH: EVQLVESGGGVVQPGRSLRLSCAASGFTLSNYAMSWVRQAPGKGLEWVAEVSSSGIYIYYSDTVTGRFSISRDNSKNTLYLQMNSLRAEDTAVYYCARDRYAYAMDYWGQGTLVIVSS
VL: DIVMTQSPDSLAVSLGERATINCKSSQSLLNSYNQKNSLAWYQQKPGQPPKLLVYFASTRESGVPDRFSGSGSGTDFTLTISSLQAEDVAVYFCQQHYSNPRTFGGGTKLEIKR
notes: The number agrees with the antibody's name and was used
B7: DOC2-RHAXRKB (antibody, human IgG1, kappa, V domains shown)
VH: B6 VH with S69T, I115T
VL: B6 VL
B8: DOC2-RHBXRKA (antibody, human IgG1, kappa, V domains shown)
VH: B6 VH
VL: B6 VL with V54I, F93Y
B9: DOC2-RHAXRKA (antibody, human IgG1, kappa, V domains shown)
VH: B6 VH with S69T, I115T
VL: B6 VL with V54I, F93Y
notes: also called DOC2-reshaped
B10: DOC2-RHBXRKC (antibody, human IgG1, kappa, V domains shown)
VH: B6 VH
VL: B6 VL with S69I, D76Y
B11: DOC2 chim. (antibody, human IgG1, kappa, V domains shown)
VH: EVQLVESGGGLVKPGGSLKLSCVASGFTLSNYAMSWVRQSPEKRLEWVAEVSSSGIYIYYSDTVTGRFSISRDNAKNTLYLEMSSLRSEDTAIYYCARDRYAYAMDYWGHGTSVIVSS
VL: DIVMTQSPSSLAISVGQRVTLSCKSSQSLLNSYNQKNSLAWYQQKPGQSPKLLVYFASTRESGVPDRFIGSGSGTYFTLTITSVQAGDLADYFCQQHYSNPRTFGGGTRLEIKR
B12: DOC2-ChXRKA (antibody, human IgG1, kappa, V domains shown)
VH: B11 VH
VL: B6 VL with V54I, F93Y

Legend:
human CCR2 [1] = target: T1, human CCR2; assay: cell binding, human monocytes
[2] = target: T2, Marmoset monkey (Callithrix jacchus) …; assay: cell binding, primary marmoset monocytes (marmoset blood)
human CCR2 [3] = target: T1, human CCR2; assay: cell binding, human PBMCs
human CCR2 [4] = target: T1, human CCR2; assay: cell binding, primary human monocytes
[5] = target: T2, Marmoset monkey (Callithrix jacchus) …; assay: cell binding, primary marmoset monocytes

binding result (human CCR2 [4]) | binding result [5] | further results | Binder
– | – | binding result (human CCR2 [1]): binds | B1
– | – | binding result [2]: no binding; binding result (human CCR2 [3]): binds | B2
binds | no binding | – | B3
binds | no binding | – | B4
– | – | binding result [2]: no binding | B5
binds | no binding | – | B6
binds | no binding | – | B7
binds | no binding | – | B8
binds | – | – | B9
binds | no binding | – | B10
– | – | binding result (human CCR2 [1]): binds | B11
– | no binding | – | B12
